In this assay the target is S. cerevisiae ubiquitin (S. cerevisiae, UniProt P0CG63 1-76). As to the kind of experiment: NMR titration.
S. cerevisiae ubiquitin, sequence (P0CG63 1-76): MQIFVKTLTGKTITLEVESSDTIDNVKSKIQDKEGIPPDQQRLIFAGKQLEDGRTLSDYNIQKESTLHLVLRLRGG

B1: UBZ domain of S. cerevisiae polymerase η (domain or fragment)
chain: TTSSKADEKTPKLECCKYQVTFTDQKALQEHADYHLALKLSEGLNGAEESSKNLSFGEKRLLF
B1: the binding result is reported as “binds”.

Source of the values: publication PMC2970701 (DNA repair, 2010).
